Consider 36 sequences from the supplement of paper PMC10567573.

± gives the standard deviation.

The nature of the series: protein stability index of a GFP-peptide fusion (GPS, HEK-293T) (PSI 1-6); higher = more stable. The settings on record: c terminus: a fixed tail appended.
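Further: 24-mer peptide tiles fused after GFP, lentivirally expressed, FACS-sorted into six equal bins by GFP/DsRed ratio, decoded by Illumina sequencing, PSI is the read-weighted mean bin number.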

Regarding AMVTADSKYCYGPQGSRSPYIPPH [FKBP8], the protein stability index by setting is: (treatment: DMSO) 3.27 ± 0.42; (treatment: MLN4924 1 uM, 8 h) 3.13 ± 0.26.
For AMVWALDLDDFAGFSCNQGRYPLI [CHIT1], in that order: 2.5 ± 0.56 and 2.65 ± 0.63.
In the same order, the values of APDAHFTVDKQNISLWPREPPPKS [CD207] are 4.73 ± 0.24 and 4.78 ± 0.27.
For APDLVLNAEMVQQTTYLEDRPMFM [LOXL2], in that order: 3.25 ± 0.18 and 3.43 ± 0.17.
Consider APEFIKVRENLRRIATLTSEEREL [FAM107A], for which the protein stability index was 4.48 ± 0.31 (treatment: DMSO) and 4.62 ± 0.16 (treatment: MLN4924 1 uM, 8 h).
Take APKAGLEEAPAVTAGLKIFEPPAP [TNFSF13B]: the protein stability index by setting is: (treatment: DMSO) 4.6 ± 0.26; (treatment: MLN4924 1 uM, 8 h) 4.68 ± 0.086.
Take APVILVGCQLDLRYADLEAVNRAR [RHOBTB2]: the protein stability index runs as follows: (treatment: DMSO) 2.57 ± 0.17; (treatment: MLN4924 1 uM, 8 h) 2.45 ± 0.21.
On to APYAAAAAAQSYPGYLPYSPEPPS [IRX6], for which the protein stability index (treatment: DMSO) turned out to be 4.06 ± 0.14 and the protein stability index (treatment: MLN4924 1 uM, 8 h) was 4.2 ± 0.15.
For AQVLMLGQILELPWKEETFLVLQS [FANCE], in that order: 2.47 ± 0.33 and 2.65 ± 0.67.
On to ARGIAGEKFDIVKKWGINTYKCTK [ARFIP2], for which the protein stability index stood at 3.3 ± 0.35 (treatment: DMSO) and 3.27 ± 0.077 (treatment: MLN4924 1 uM, 8 h).
ARHLREYQELLNVKMALDIEIATY [PRPH] registered a protein stability index (treatment: DMSO) of 2.34 ± 0.4 and a protein stability index (treatment: MLN4924 1 uM, 8 h) of 2.4 ± 0.37.
For ARLLQEGGGGVAAVVVLDQGSRHW [DUSP5], in that order: 2.64 ± 0.97 and 2.44 ± 0.75.
Regarding ARQETKEMARKVIEHCSNFKEENM [ZER1], the protein stability index is, setting by setting: (treatment: DMSO) 4.74 ± 0.23; (treatment: MLN4924 1 uM, 8 h) 4.57 ± 0.45.
Take ASESEHIPKPQSTGWFGGGFTSYL [MIA2]: the protein stability index reads like this: (treatment: DMSO) 2.4 ± 0.37; (treatment: MLN4924 1 uM, 8 h) 2.69 ± 0.34.
ASSASLEPMWSGSTMRRMALRPTA [EMID1] gave a protein stability index (treatment: DMSO) of 3.43 ± 0.23 and a protein stability index (treatment: MLN4924 1 uM, 8 h) of 3.64 ± 0.43.
For ATTASPAKVDSSGVIDLFGDAFGS [SNAP91], in that order: 4.06 ± 0.2 and 4.42 ± 0.15.
For ATYLRCQLLLIKALQEKLWNVAAP [INTS4], in that order: 3.16 ± 0.3 and 2.9 ± 0.39.
With AVKLADFGLAIEVEGEQQAWFGFA [CAMK2A], the protein stability index stood at 2.51 ± 0.48 (treatment: DMSO) and 2.26 ± 0.5 (treatment: MLN4924 1 uM, 8 h).
Take AVVASSVNSYYSSPAQQVPKNPAL [TOR1AIP2]: the protein stability index reads like this: (treatment: DMSO) 3.51 ± 0.16; (treatment: MLN4924 1 uM, 8 h) 3.46 ± 0.18.
On to AWAAHTRLFQVVGKTDDTLALLNL [TMEM175], for which the protein stability index reads like this: (treatment: DMSO) 2.25 ± 0.13; (treatment: MLN4924 1 uM, 8 h) 2.03 ± 0.042.
For AYMDRRDHPLPEVAHVKHLSASQK [COX4I1], in that order: 4.34 ± 0.32 and 4.6 ± 0.32.
In the same order, the values of CAFVGALGGAAFLGTAIFIEADRR [SPNS1] are 2.8 ± 0.78 and 2.36 ± 0.67.
As for CDALRTLAEARRLFPGRVSVDLML [RSAD1], the protein stability index runs as follows: (treatment: DMSO) 2.05 ± 0.33; (treatment: MLN4924 1 uM, 8 h) 2.03 ± 0.37.
Take CEKTFRDKNTLKDHMRKKQHRKIN [ZNF277]: the protein stability index by setting is: (treatment: DMSO) 3.77 ± 0.21; (treatment: MLN4924 1 uM, 8 h) 3.71 ± 0.31.
For CFQSCLCCCCYQSKSLMTSVPMNG [EDNRA], in that order: 2.31 ± 0.53 and 2.41 ± 0.18.
For CGPPSLGAVLALVAIFIMSLNKRH [MFSD9], the protein stability index reads like this: (treatment: DMSO) 3.3 ± 0.89; (treatment: MLN4924 1 uM, 8 h) 3.41 ± 1.1.
For the sequence CGTPLRKSNFRVQLFEDPTVDKEV [MNAT1], the protein stability index (treatment: DMSO) came out at 3.84 ± 0.09 and the protein stability index (treatment: MLN4924 1 uM, 8 h) is 3.75 ± 0.16.
For CLMLLMGTVHCQIVSTQITRPSGN [PHTF1], the protein stability index by setting is: (treatment: DMSO) 3.12 ± 0.47; (treatment: MLN4924 1 uM, 8 h) 2.84 ± 0.47.
In the same order, the values of CLPPEPSPDDPESVKIIFKLPNDS [FAF2] are 4.76 ± 0.17 and 4.82 ± 0.13.
For CMVGYDMGATRCDFTLSKTNMARI [CPXM2], in that order: 2.24 ± 0.6 and 2.1 ± 0.22.
For CNECAKLIIQAGIKEVIFMSDKYH [DCTD], the protein stability index reads like this: (treatment: DMSO) 2.01 ± 0.81; (treatment: MLN4924 1 uM, 8 h) 2.43 ± 0.41.
For CNECGKAFRWGAHLVQHQRIHSGE [ZNF232], in that order: 4.44 ± 0.56 and 4.53 ± 0.26.
For CPQSLPCFEASDCKESSPMPVICG [NANOGP8], in that order: 3.77 ± 0.18 and 3.89 ± 0.083.
For CQACRFMKCLKVGMLKEGVRLDRV [ESRRG], in that order: 2.6 ± 0.45 and 2.04 ± 0.16.
As for CQQNMIQELIETNQQLRNELQLEQ [CEP70], the protein stability index stood at 4.12 ± 0.26 (treatment: DMSO) and 3.85 ± 0.51 (treatment: MLN4924 1 uM, 8 h).
For CSGTELSLAHCRHDGEDVACPQGG [LOXL2], in that order: 4.78 ± 0.73 and 4.3 ± 0.24.
